44 molecules from patent US20040229289A1, “Antigen binding peptides (abtides) from peptide libraries” (Cytogen Corporation, priority 1994, published 2004) can be followed below.

Where no end group is shown, it is not given here.

To fix the notation:
T1: PEM peptide (human)
T1 peptide: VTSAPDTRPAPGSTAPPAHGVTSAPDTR

T2: mimetope peptide 7E11-9.5 (not fully specified)
T2 peptide: LYANPGMYSRLHSPA

B1: MP-1 (peptide)
peptide: GAPVWRGNPRWRGPGGFKWPGCGNGPMCNTFTPARGGSRNNGP
notes: eluted with excess PEM peptide; also called MPI; PEM abtide MP-1

In the first experiment the target is T1, PEM peptide. Nature of the experiment: phage panning on PEM peptide, R26 library, acid eluted. The procedure:
(§1) A peptide comprising this sequence was synthesized and used to isolate abtides from TSAR peptide libraries by methods analogous to those described above. In these experiments, the specific TSAR libraries used were R26, D38 and DC43. See FIGS. 10-12 for description of these libraries. Phage bound to PEM were eluted by either standard acid elution methods, stringent acid elution methods where phage were incubated with the PEM peptide for only 10 minutes prior to washing and elution, or were eluted using excess PEM peptide. Phage from each library were isolated that express peptides capable of binding to PEM.
For SVHGAFLDSFFPWAADGPHGRGRLTSF (acid eluted) [A16], the binding result is reported as “binds”.
The same measure, in the same setting: then SLGLPWIDVFGRSSAEPWPFGRTNLPRS (acid eluted) [A39], with “binds”; and SFMDYFFHTPEPKPAGYPNAYTDPKHPA (acid eluted) [A15], with “binds”.
On the same count and under the same terms, with SSSIFDYAPFSWGSAGLSNSSINVFERS (acid eluted) [A54] the entry was “binds”.

The target of another experiment is T1, PEM peptide. Put plainly: phage panning on PEM peptide, DC43 library, stringent acid elution. The method, then: as §1
Regarding SSASSGCLGRAEHLDLDSVWGCGSQADMSRRYSPWYGRPRTGV (stringent acid elution) [V7], the binding result is “binds”.
Still for that read-out and setting: then DPCEDGYWLSSVGRAGASIRGCGAIRRSSRTLTAEYSTRASNH (stringent acid elution) [V39], with “binds”; and NVMWSSSKAGIRDCSQVPPGGCGPVNRHRASPPLTPFRHGSIR (stringent acid elution) [V4], with “binds”.
Same read-out and setting: with GSKRSCWGTTISNYFRPVPEGCGSASSINPNTNTGRLPSLHRQ (stringent acid elution) [V10] the entry was “binds”; with WSIGTHTGPEGKFRIPCDRSGCGGTTLTHGGLNSSPTGQHERP (stringent acid elution) [V44], “binds”.

In a further experiment the target is T1, PEM peptide. Put plainly: phage panning on PEM peptide, D38 library, acid eluted. The procedure:
as §1
Take IDSSKNRISGTGYLSFPHIRHANRRHMADDSNLAPGPS (acid eluted) [V1]: the binding result is recorded as “binds”.
As to VQLDDTSPRASGQETSQSEYDARPLLSKFAIPRPWSR (acid eluted) [V21], the binding result was “binds”.
Same read-out and setting: then DQIGSRPQTTSRSISGSWWENAKTLWQQDYAFSAPNAA (acid eluted) [MA-32], with “binds”; and LSDAWGNFTTSYRDSAGFPSHAMTTSQGGKRNHASRFP (acid eluted) [V23], with “binds”.

The target in another experiment is T2, mimetope peptide 7E11-9.5. Nature of the experiment: phage panning of TSAR-9 library on plate-bound 7E11-9.5 peptide. The procedure: Next, the mimetope peptide was used to isolate abtides from a peptide library. Fifty to one hundred microliters of the solution of this peptide was used to coat the wells of a 96-well plate, the wells were blocked with 0.5% BSA in PBS, and the wells were used for screening. An aliquot of the TSAR-9 random phage library (containing approximately 3×10¹⁰ phage particles) was used as in the initial screening, and 4 rounds of screening were performed. After the first two rounds, the phage were amplified. Two more rounds of screening were then performed. By this procedure, phage from the TSAR-9 library that expressed peptides capable of binding to the 7E11-9.5 mimetope peptide were identified and isolated. The peptides containing the binding domains of these phage are abtides and were discovered to mimic the binding specificities of monoclonal antibody 7E11-C5. These abtides are termed “7E11-C5 abtides.”
Consider RCSPIWGISYPFGLLSSNPGVCHSSDAETNIRNDILTT [7E11-C5 abtide clone 13], for which the binding result is on record as “binds”.
On to GHSNYCFVSTLGMPIVGFPSINARGLIHYGGSDPRLAA [7E11-C5 abtide clone 16], for which the binding result is on record as “binds”.

The next experiment has as its target T1, PEM peptide. Nature of the experiment: phage ELISA on PEM. (In general: In an ELISA, binding on a coated surface is turned into a signal by an enzyme label.)
Turning to GAPLWQGDPADEVLGGSMIPGCGIGALSQTFTPTPGGSRKNVT [E37], the binding result is “no binding”.
As to GAPVSRCKPACGGFWGVNWPGCGNASMCKTFTNGHGVSSDNGH [E22], the binding result is “binds”.
In the case of GLSLVRGDSWGSGAGGWKRHGCGHGPMYNPQTPARGGSCTRNT [E66], the binding result is reported as “binds”.
On the same count and under the same terms, with GTRVPPGFALRGGRDGLSWAGCGKAPISKTYTSARGRSRKKGS [E3] the entry was “no binding”; with VSRAWSGKPRLMGSHGLNCPGCGKGHSGIMFIPDPAGSANTPP [E67], “binds”.
GDPECRGKPRGRWTGSLACTGCGNGPNSKICTRARGVSRNKGP [E60]: the binding result was “no binding”.
With RSAVSEGKPREIVPGGCMWPGCGNGRKSNTLTHGPEQFQEIEP [E15], the binding result is on record as “no binding”.
Turning to QARVSMAISCRSGPSDLMHQGCGYGPRCNPDTTDSGGSHTNTP [E49], the binding result is recorded as “no binding”.
On the same count and under the same terms, with GSSVCGGQPSGRGFGGLPGPGCGNGPTSNTLTSARGGFPNKGL [E27] the entry was “no binding”; with GAPVVGDILWCSGARGAKWPGCGKGPTNKTFSHSRGGTQKSGL [E90], “binds”.
Take SSGVGNGKPRSWAPDALNGGCGNIQFANTITPDRGGSCNQTL [E24]: the binding result is listed as “no binding”.
Still for that read-out and setting: with GQPECRITSGCCGTDGNKWLGCGKVDMCNTLNPAVGCHGTNGS [E34] the entry was “no binding”.
Same read-out and setting: then GAHGYKNGSTCTGLGGWRCRGCGKGAMCNNPSPAGGAYHNQGP [E29], with “binds”.
The same measure, in the same setting: then GEPVWCRHSGGRVQGGLDWLGCGDGPLRYTVTPARGGPSKHGP [E64], with “binds”; and ADPVCSRKPDGGGLRGLRWPGCGKGPILYNVTAARGGSRNNGP [E70], with “binds”; and AGRELRQDEGEGGAGADVARLREGPICSTFTPARGGSCPSGL [E43], with “no binding”.
As for CAPMWSGKPPWCVGGGVKFRGCGNRPDCNIITPRLVESRDKAL [E68], the binding result was “binds”.
On the same count and under the same terms, with STPGCSGYSGSGDPRCLTCTACGNGHTRKTLTPAHGRSTHKEP [E72] the entry was “no binding”.

For another experiment, the target named is T1, PEM peptide. Put plainly: phage panning on PEM peptide, D38 library, stringent acid elution. The procedure: as §1
On to PLTSGSSSEYRNRDDCPVYKYATNCPRLNFSPSRYSPF (stringent acid elution) [V45], for which the binding result is “binds”.
On the same count and under the same terms, then STCIGAEGEWKSFHNFLQCRDATSTSSSTLDPTALRFG (stringent acid elution) [V27], with “binds”; and YSATLWDQFGSRQVELWSNRHASSALPFASRASVLGSR (stringent acid elution) [V40], with “binds”; and GDAYGGIFSRPRQGLADSYIHASYTGKHFFRGPRPPTR (stringent acid elution) [V32], with “binds”.

Another experiment addresses T1, PEM peptide. Put plainly: phage panning on PEM peptide, DC43 library, eluted with excess PEM peptide. The procedure: as §1
In the case of B1, the binding result is “binds”.
Still for that read-out and setting: then VFRRTARSSRPIGATVFPWYGCGNSNDETLPHHDSPPSFFLGA (eluted with excess PEM peptide) [MP-22], with “binds”.
Still for that read-out and setting: then GSASSCFPNFTARGVTVGFFGCGSPAHPAAPRVLNPATDFPAP (eluted with excess PEM peptide) [MP-2], with “binds”.

The target of a further experiment is T1, PEM peptide. Put plainly: phage panning on PEM peptide, R26 library, eluted with excess PEM peptide. The method, then:
as §1
For the molecule SRDDIFTGGPLVLFRGSKTSNHDVHSMR (eluted with excess PEM peptide) [P26], the binding result is listed as “binds”.
Same read-out and setting: then RAELVNWYEWFHVTAEAETPVINSHNMT (eluted with excess PEM peptide) [P6], with “binds”; and SIPSFSMWLNQLGSAALPSKGNSQDRSD (eluted with excess PEM peptide) [P49], with “binds”; and ILGWPFLTGLGDSTVHPRGRKGTDPS (eluted with excess PEM peptide) [P24], with “binds”.
